One molecule from patent publication US20100183588A1 (IVS INSTITUT DES VAISSEAUX ET DU SANG, published 2010) can be followed below.

In the assay the target is UNC5H4 receptor of the pericytes and smooth muscle cells. In words: cell-based or functional assay.

B1: mutated netrin 4 (SEQ ID NO: 522), recombinant protein (ligand)
chain: LSGVAGVSSRCEKACNPRMGNLALGRKLWADTTCGQNATELYCFYSENTDLTCRQPKCDKCNAAYPHLAHLPSAMADSSFRFPRTWWQSAEDVHREKIQLDLEAEFYFTHLIVMFKSPRPAAMVLDRSQDFGKTWKPYKYFATNCSATFGLEDDVVKKGAICTPKYSSPFPCTGGEVIFKALSPPYDTENPYSAKVQEQLKITNLRVQLLKRQSYPCQRNDLNEEPQHFTHYAIYDFIVKGSCFCNGHADQCIPVHGFRPVKAPGTFHMVHGKCMCKHNTAGSHCQHCAPLYNDRPWEAADGKTGAPNECRTRKCNGHADTCHFDVNVWEASGSRSGGVCDDCQHNTEGQYCQRCKPGFYRDLRRPFSAPDACKPCSCHPVGSAVLPANSVTFCDPSNGDCPCKPGVAGRRCDRCMVGYWGFGDYGCRPCDCAGSCDPITGDCISSHTDIDWCHEVPDFRPVHNKSEPAWEWEDAQGFSALLHSGKCECKEQTLGKAKAFCGMKYSYVLKIKILSAHDKGTHVEVNVKIKKVLKSTKLKIFRGKRTLYPESWTDRGCTCPILNPGLEYLVAGHEDIRTGKLIVNMKSFVQHWKPSLGRKVMDILKRECK
For the molecule B1, the “VSM migration: chemotactic activity relative to non-mutated netrin 4” value is 3000 fold over non-mutated netrin 4 and the “VSM proliferation: mitogenic activity relative to non-mutated netrin 4” value is 1000 fold over non-mutated netrin 4.
